Assay [1] has as its target T1, Alder (Aln g 1, MyBiosource, Cat #MBS1041484) (Alder, UniProt P38948 2-160, limits assumed).
T1 construct: Bought reagent
T1 sequence (looked up): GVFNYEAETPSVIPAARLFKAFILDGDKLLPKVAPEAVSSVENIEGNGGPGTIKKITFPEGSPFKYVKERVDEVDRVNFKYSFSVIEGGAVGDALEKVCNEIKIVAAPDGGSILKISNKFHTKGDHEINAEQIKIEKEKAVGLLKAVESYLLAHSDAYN
The assay can be described thus: SPR, mAb captured via anti-hFc, 25 C. For orientation: Surface plasmon resonance follows binding to a sensor surface in real time, without labels.

For assay [2], the target named is T2, Apple (Mal d 1, MyBiosource, Cat #MBS1224919) (Apple, UniProt P43211 2-159, limits assumed).
T2 construct: Bought reagent
T2 sequence (looked up): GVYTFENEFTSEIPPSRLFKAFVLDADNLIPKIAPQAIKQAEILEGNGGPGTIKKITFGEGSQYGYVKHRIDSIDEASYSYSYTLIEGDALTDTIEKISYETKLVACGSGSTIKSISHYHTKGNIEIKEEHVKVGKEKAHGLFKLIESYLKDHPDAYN
The experiment in a line: SPR, mAb captured via anti-hFc, 25 C.

The target of assay [3] is T3, Celery (Api g 1, MyBiosource, Cat #MBS1171376) (Celery, UniProt P49372 1-154, limits assumed).
T3 construct: Bought reagent
T3 sequence (looked up): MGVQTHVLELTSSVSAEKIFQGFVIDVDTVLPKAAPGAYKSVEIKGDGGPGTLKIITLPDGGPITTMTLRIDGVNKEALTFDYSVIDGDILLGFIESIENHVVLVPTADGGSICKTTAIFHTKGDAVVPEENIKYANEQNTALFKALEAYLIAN
The experiment in a line: SPR, mAb captured via anti-hFc, 25 C.

Assay [4] has as its target T4, European Hornbeam (Car b 1 isoform 2, MyBiosource, Cat #MBS1043940) (European Hornbeam, UniProt P38950 2-160, limits assumed).
T4 construct: Bought reagent
T4 sequence (looked up): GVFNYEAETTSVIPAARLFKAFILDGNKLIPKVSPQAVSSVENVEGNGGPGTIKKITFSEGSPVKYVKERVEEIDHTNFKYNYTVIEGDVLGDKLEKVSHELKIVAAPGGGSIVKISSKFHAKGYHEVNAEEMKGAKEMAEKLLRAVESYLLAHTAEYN
The experiment in a line: SPR, mAb captured via anti-hFc, 25 C.

The target of assay [5] is T5, European Hornbeam (Car b 1 isoform 1A & 1B, MyBiosource, Cat #MBS1200018) (European Hornbeam, UniProt P38949 2-160).
T5 construct: Bought reagent
T5 sequence (looked up): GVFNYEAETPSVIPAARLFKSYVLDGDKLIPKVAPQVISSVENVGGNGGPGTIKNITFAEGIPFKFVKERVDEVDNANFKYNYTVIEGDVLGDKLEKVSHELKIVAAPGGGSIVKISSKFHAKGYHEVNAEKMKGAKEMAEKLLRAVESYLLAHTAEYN
The assay can be described thus: SPR, mAb captured via anti-hFc, 25 C.

Assay [6] addresses T6, CHO produced recombinant Bet v 1 containing a S85A mutation with a C-terminal myc-myc hexahistidine tag … (Betula verrucosa (birch)).
T6 chain: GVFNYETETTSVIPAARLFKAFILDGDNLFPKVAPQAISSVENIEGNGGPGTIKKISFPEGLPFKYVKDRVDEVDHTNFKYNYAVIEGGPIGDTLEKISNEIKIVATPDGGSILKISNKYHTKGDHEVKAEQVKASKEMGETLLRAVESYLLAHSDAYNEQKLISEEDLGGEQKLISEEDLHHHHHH
The assay can be described thus: SPR, mAb captured via anti-hFc, 25 C.

The target of assay [7] is T6, CHO produced recombinant Bet v 1 …. The assay can be described thus: SPR, mAb captured via anti-hFc, 37 C.

B1: H4H16992P (antibody, human IgG4 S228P, kappa, V domains shown)
VH: QVQLQESGPGLVKPSETLSLTCSVSGGSITNYFWTWIRQSPGKGLEWIGYIYYSGGTNYNPSLKSRVTISIDTSKNQFSLNMNSVTAADTAVYYCAGSYYYGVDVWGQGTTVTVSS
VL: EIVLTQSPATLSLSPGERATLSCRASQSIKSFLAWYRQKPGQAPRLLIYDASNRPTGIPARFSGSGSGTDFTLTINSLESEDFAVYFCQQRNNWPFTFGPGTKVDIKR
notes: human IgG4 Fc; also called REGN5713; MAB1
In the case of B1, the “100 nM Analyte Bound (RU)” value in assay [1] was found to be 5 RU; in assay [2], 3 RU; in assay [3] it was 1 RU; in assay [5], 161 RU. Moreover, the binding result in assay [1], in assay [2] and in assay [3] was “no binding (tested: 100 nM)” each time. Also, the values for the Kd in assay [4] and in assay [5] were 0.617 nM and 1.2 nM, respectively. In assay [5], this molecule had a t½ of 34 min.

B2: H4H16946P (antibody, human IgG4, V domains shown)
VH: EVQLVESGGGLVQPGGSLRLSCVASGFTFSNYDMNWVRQAPGEGLEWISYISYSDHNIYYIDSVKGRFTISRDNAKNSLYLQMNSLRAEDTAIYYCAREALASSSFDYWGQGTLVTVSS
VL: EIVMTQSPATLSVSPGERVTLSCRASQSVSGNLAWYQQKPGQAPRLLIYSASTGATGVPARFSGSGSGTEFTLTISSLQSEDFALYYCQQYNKWPRTIGQGTKVEIK
notes: Fully human antibody with human IgG4 Fc (H4H prefix)
For B2, in assay [1], the “100 nM Analyte Bound (RU)” value was 2 RU and the binding result was “no binding (tested: 100 nM)”. In assay [2], the “100 nM Analyte Bound (RU)” value worked out at 0 RU and the binding result is listed as “no binding (tested: 100 nM)”. Besides, in assay [6], the “100 nM natural Bet v 1- MMH Bound (RU)” value turned out to be 83 RU, the Kd worked out at 0.348 nM, the koff turned out to be 0.000141 s⁻¹ and the kon was 405000 M⁻¹ s⁻¹. For the same molecule, the t½ in assay [6] is 82 min. For the same molecule, in assay [7], the “100 nM natural Bet v 1-MHH Bound (RU)” value was found to be 97 RU, the Kd turned out to be 0.655 nM, the koff was found to be 0.000395 s⁻¹ and the kon worked out at 603000 M⁻¹ s⁻¹. Also, the t½ in assay [7] turned out to be 29 min. Moreover, in assay [3], the “100 nM Analyte Bound (RU)” value is 1 RU and the binding result is reported as “no binding (tested: 100 nM)”. In assay [4], the “100 nM Analyte Bound (RU)” value was 63 RU, binding was characterised by a dissociation constant (Kd) of 179 nM, the koff was found to be 0.0138 s⁻¹ and the kon is 76900 M⁻¹ s⁻¹. Besides, the t½ in assay [4] was 0.8 min. In assay [5], the “100 nM Analyte Bound (RU)” value worked out at 63 RU, the Kd is 168 nM, the koff was 0.024 s⁻¹ and the kon worked out at 143000 M⁻¹ s⁻¹. The same molecule had a t½ in assay [5] of 0.5 min.

B3: H4H16967P (antibody, human IgG4, V domains shown)
VH: QVQLVESGGGVVQPGRSLRLSCAASGFTFSSYGMHWFRQAPGKGLEWVGVIWSDGSDKKYADSVKGRFTISRDNSKNTLYLLMNSLRDDDTAVYHCAREGGFLYSSSSHFDYWGQGTLVTVSS
VL: AIQMTQSPSSLSASVGDRVTITCRTSQGIRNDLGWYQQKPGKAPKLLIFAASSLQSGVPSRFSGSGSGTDFTLTISSLQPEDFAIYYCLQDYKYPFTFGGGTKVEIK
notes: as for B2
Consider B3, for which the “100 nM Analyte Bound (RU)” value in assay [1] is 0 RU; in assay [2], -2 RU; in assay [3], -1 RU; in assay [4] it was 0 RU; in assay [5] it was -1 RU. The binding result in assay [1] and in assay [4] was “no binding (tested: 100 nM)” each time. The “100 nM natural Bet v 1- MMH Bound (RU)” value in assay [6] came out at 0 RU. In assay [7], the “100 nM natural Bet v 1-MHH Bound (RU)” value was -1 RU.

B4: H4H16950P (antibody, human IgG4, V domains shown)
VH: QVQLVQSGAEVKKPGASVKVSCKTSGYTFTNYGITWVRQAPGQGLEWMGWISAYNGNTNYAQNVQGRVTMTTDTSTSTAYMEVRSLRSDDTAVYYCARRSSMLHFQHWGQGTLVTVSS
VL: DIVMTQSPDSLAVSLGERATINCKSSQHVLYDSSNENYLAWFQQKPGQPPKLLIYWASTRESGVPDRFSGSGSGTDFTLTISSLQAEDVAVYYCQQYSSAPYTFGQGTKLEIK
notes: as for B2
On to B4, for which, in assay [1], the “100 nM Analyte Bound (RU)” value worked out at 15 RU, the Kd worked out at 175 nM, the koff turned out to be 0.016 s⁻¹ and the kon was 91200 M⁻¹ s⁻¹. Moreover, in assay [1], the t½ worked out at 0.7 min. In addition, the “100 nM Analyte Bound (RU)” value in assay [2] was -1 RU. Also, in assay [6], the “100 nM natural Bet v 1- MMH Bound (RU)” value worked out at 70 RU, the Kd came out at 2.21 nM, the koff stood at 0.000335 s⁻¹ and the kon stood at 151000 M⁻¹ s⁻¹. The t½ in assay [6] worked out at 35 min. Moreover, in assay [7], the “100 nM natural Bet v 1-MHH Bound (RU)” value was 83 RU, the Kd worked out at 5.81 nM, the koff worked out at 0.00125 s⁻¹ and the kon came to 215000 M⁻¹ s⁻¹. In addition, the t½ in assay [7] was 9.2 min. Further, in assay [3], the “100 nM Analyte Bound (RU)” value is 0 RU and the binding result was “no binding (tested: 100 nM)”. Besides, in assay [4], the “100 nM Analyte Bound (RU)” value was 0 RU and the binding result was “no binding (tested: 100 nM)”. Moreover, the “100 nM Analyte Bound (RU)” value in assay [5] is -1 RU.

B5: H4H16960P (antibody, human IgG4, V domains shown)
VH: QLQLQESGPGLVRPSETLSLTCTVSGGSISSSNYWWGWIRQPPGKGLEWIGSIYYSGITYYNPSLKSRVTISADTSKDQFSLKLRSVTAADTAVYYCAKLEWLRLDFWGQGTTVTVSS
VL: DIQMTQSPSSVSASVGDRVTITCRASQGISSWLVWYQQKPGKVPKLLIYAASSLQSGVPLRFSGSGSGTDFTLTISSLQPEDFATYYCQQAKSFPLTFGQGTRLEIK
notes: as for B2
For B5, in assay [1], the “100 nM Analyte Bound (RU)” value was found to be 29 RU, the Kd came out at 147 nM, the koff was determined as 0.0332 s⁻¹ and the on-rate (kon) is 226000 M⁻¹ s⁻¹. In assay [1], this molecule had a t½ of 0.3 min. In addition, in assay [2], the “100 nM Analyte Bound (RU)” value was determined as 1 RU and the binding result was “no binding (tested: 100 nM)”. In assay [6], the “100 nM natural Bet v 1- MMH Bound (RU)” value stood at 64 RU, the Kd turned out to be 0.789 nM, the koff was determined as 0.000443 s⁻¹ and the kon stood at 562000 M⁻¹ s⁻¹. Further, the t½ in assay [6] amounted to 26 min. In addition, in assay [7], the “100 nM natural Bet v 1-MHH Bound (RU)” value turned out to be 72 RU, the Kd amounted to 2.01 nM, the koff worked out at 0.00177 s⁻¹ and the kon was determined as 879000 M⁻¹ s⁻¹. The t½ in assay [7] turned out to be 6.5 min. Moreover, in assay [3], the “100 nM Analyte Bound (RU)” value is 0 RU and the binding result is recorded as “no binding (tested: 100 nM)”. In assay [4], the “100 nM Analyte Bound (RU)” value worked out at 1 RU and the binding result is listed as “no binding (tested: 100 nM)”. Besides, in assay [5], the “100 nM Analyte Bound (RU)” value was found to be 4 RU and the binding result is given as “no binding (tested: 100 nM)”.

B6: H4H16943P (antibody, human IgG4, V domains shown)
VH: EVQLVESGGGLVQPGGSLRLSCTASGFMSSMYWMSWVRQAPGKGLEWVSNIKQDGTEKNYVESVKGRFTISRDNAKNSLYLQINSLRGEDTAVYYCARDLYSSSSGYYYYGLDVWGQGTTVTVSS
VL: DIVMTQSPLSLPVTPGEPASISCRSSQSLLHSNKYNYLDWYLQKPGQSPQLLIYLSSNRASGVPDRFSGSGSGTEFTLKISRVEAEDVGIYYCMQALHTPLTFGGGTKVEIK
notes: as for B2
For B6, in assay [1], the “100 nM Analyte Bound (RU)” value turned out to be 1 RU and the binding result is recorded as “no binding (tested: 100 nM)”. In assay [2], the “100 nM Analyte Bound (RU)” value is -1 RU. Besides, in assay [6], the “100 nM natural Bet v 1- MMH Bound (RU)” value was found to be 0 RU and the binding result is “no binding (tested: 100 nM)”. Moreover, the “100 nM natural Bet v 1-MHH Bound (RU)” value in assay [7] stood at 0 RU. In assay [3], the “100 nM Analyte Bound (RU)” value is 0 RU and the binding result is on record as “no binding (tested: 100 nM)”. Moreover, in assay [4], the “100 nM Analyte Bound (RU)” value amounted to 183 RU, binding was put at a Kd of 0.335 nM, the dissociation rate constant (koff) was found to be 0.000371 s⁻¹ and the kon came out at 1.11e+06 M⁻¹ s⁻¹. For the same molecule, the t½ in assay [4] stood at 31 min. In assay [5], the “100 nM Analyte Bound (RU)” value was 26 RU; the affinity, expressed as Kd, was 380 nM; the koff was found to be 0.0578 s⁻¹; the kon came out at 152000 M⁻¹ s⁻¹. In assay [5], the t½ came to 0.2 min.

As usually defined, the Kd is the constant that tells how readily two partners part at equilibrium. In general, t½ refers to the time in which the quantity being followed falls by half. One may read the koff as the first-order rate constant of dissociation. As usually defined, the kon is a measure of how fast the partners come together.

These data come from patent US20240083986A1 (published 2024).
